According to US20210332120A1 (JOINT STOCK COMPANY BIOCAD, published 2021):

Key:
[1] = biological target: T1, guinea pig TNFα (guinea pig, UniProt P51435 80-234, limits assumed); assay: ELISA, plate coated with guinea pig TNFα, anti-Fab HRP detection
T1 sequence (looked up): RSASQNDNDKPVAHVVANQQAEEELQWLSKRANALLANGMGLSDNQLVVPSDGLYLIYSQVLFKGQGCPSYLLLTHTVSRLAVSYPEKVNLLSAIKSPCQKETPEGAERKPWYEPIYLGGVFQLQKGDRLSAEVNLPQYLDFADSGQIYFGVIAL

[2] = biological target: T2, human IL-17F (human, UniProt Q96PD4 31-163); assay: BLI OctetRED96
T2 construct: also called IL-17F human
T2 sequence (looked up): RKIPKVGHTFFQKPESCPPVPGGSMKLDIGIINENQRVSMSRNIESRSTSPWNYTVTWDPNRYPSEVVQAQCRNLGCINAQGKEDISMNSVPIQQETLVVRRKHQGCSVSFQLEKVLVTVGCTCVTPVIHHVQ

[3] = biological target: T3, human IL-17A (human, UniProt Q16552 20-155, limits assumed); assay: cell-based or functional assay
[4] = biological target: T4, cynomolgus IL-17A (cyno, UniProt A0A2K5TTB0 24-155); assay: SPR Biacore T200; ligand amine-coupled, antibody 1 to 25 µg/ml, Heterogeneous Ligand model
T4 construct: also called IL-17A cyno
Procedure: (§1) The analysis was conducted using the Sandwich approach using IL-17A and TNFα preparations produced by Sino Biologics. After activation of the chips, individual ligand was nonspecifically (by NH2 groups) immobilized on the biosensor surface at a concentration of 20 μg/ml. Loading of the antibody was then performed at a concentration from 1 to 25 μg/ml. Thereafter, the sensors were immersed in the running buffer for the complex dissociation step. The flow rate was 10 μl/min.
(§2) Analysis of the obtained data was performed using BIA Evolution 3.1 software and the Heterogeneous Ligand model.

[5] = biological target: T5, TNFα multta (multta (so in the source); primate), UniProt P48094 77-233); assay: as above
T5 construct: The species is printed only as 'multta'; read as Macaca mulatta
Procedure: as §1, §2

[6] = biological target: T6, mouse TNFα (mouse, UniProt P06804 80-235); assay: ELISA, plate coated with mouse TNFα, anti-Fab HRP detection
T6 sequence (looked up): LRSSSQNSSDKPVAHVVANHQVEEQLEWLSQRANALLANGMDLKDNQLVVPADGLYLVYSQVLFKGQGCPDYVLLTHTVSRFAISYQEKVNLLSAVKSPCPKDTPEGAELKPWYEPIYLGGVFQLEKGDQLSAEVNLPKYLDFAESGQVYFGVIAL

[7] = biological target: T3, human IL-17A; assay: SPR Biacore T200; ligand amine-coupled, antibody 1 to 25 µg/ml, Heterogeneous Ligand model; * below the threshold sensitivity of the device
Procedure: as §1, §2

[8] = biological target: T7, rabbit TNFα (rabbit, UniProt P04924 80-235, limits assumed); assay: ELISA, plate coated with rabbit TNFα, anti-Fab HRP detection
T7 sequence (looked up): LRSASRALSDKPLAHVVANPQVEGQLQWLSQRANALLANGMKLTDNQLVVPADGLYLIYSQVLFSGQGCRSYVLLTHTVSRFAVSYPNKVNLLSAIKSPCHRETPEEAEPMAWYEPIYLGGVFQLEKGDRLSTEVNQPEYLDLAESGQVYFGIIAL

[9] = biological target: T8, human IL-17E (human, UniProt Q9H293 33-177); assay: ELISA, plate coated with human IL-17E, anti-Fab HRP detection
T8 sequence (looked up): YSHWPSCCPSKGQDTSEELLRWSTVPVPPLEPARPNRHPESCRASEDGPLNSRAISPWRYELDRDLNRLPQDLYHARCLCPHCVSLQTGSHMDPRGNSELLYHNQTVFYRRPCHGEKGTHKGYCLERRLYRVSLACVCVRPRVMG
Procedure: (§3) For the binding analysis, the wells of ELISA plates (medium binding from Greiner bio one) were individually coated with 50 μl of human IL-17A, IL-17B, IL-17C, IL-17D, IL-17E, IL-17F, or IL-17A/F (R&D Systems) at a concentration of 1 μg/ml (in 1× coating carbonate buffer), hermetically sealed, and incubated overnight at 4 C. All subsequent steps were performed by standard EIA protocol. To block non-specific binding blocking, buffer BB was added (200 μl of 0.5% skim milk in PBS). Plates were incubated on a shaker for one hour at room temperature. After washes with PBS-Tween, 50 μl of the test antibodies were added to each well at a concentration of 5 μg/ml in PBS-Tween. Plates were again incubated with shaking for one hour at room temperature, then each well of the plates was washed three times with PBS-Tween buffer. After washing, human anti-Fab HRP-conjugated secondary antibody (from Pierce-ThermoScientific) was added (50 μl/well) at a ratio of 1:5000 in PBS-Tween. Plates were shaken on a rotary shaker (50 min, room temperature) and washed three times with PBS-Tween buffer, as described above. […] The color signal was measured at 450 nm using a suitable plate-reader (Tecan-Sunrise; Tecan).

[10] = biological target: T9, human IL-17D (human, UniProt Q8TAD2 18-202, limits assumed); assay: ELISA, plate coated with human IL-17D, anti-Fab HRP detection
T9 sequence (looked up): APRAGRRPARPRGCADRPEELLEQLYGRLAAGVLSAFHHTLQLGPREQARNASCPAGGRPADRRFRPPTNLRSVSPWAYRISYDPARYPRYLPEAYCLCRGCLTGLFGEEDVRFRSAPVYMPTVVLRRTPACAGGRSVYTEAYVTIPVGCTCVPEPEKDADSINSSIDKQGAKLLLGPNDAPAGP
Procedure: as §3

[11] = biological target: T10, human IL-17B (human, UniProt Q9UHF5 21-180); assay: ELISA, plate coated with human IL-17B, anti-Fab HRP detection
T10 sequence (looked up): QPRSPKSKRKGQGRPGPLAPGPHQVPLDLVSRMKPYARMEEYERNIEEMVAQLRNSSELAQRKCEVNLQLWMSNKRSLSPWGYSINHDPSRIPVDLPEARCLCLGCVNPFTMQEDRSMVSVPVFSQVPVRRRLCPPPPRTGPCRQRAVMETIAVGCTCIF
Procedure: as §3

[12] = biological target: T11, human IL-17C (human, UniProt Q9P0M4 19-197); assay: ELISA, plate coated with human IL-17C, anti-Fab HRP detection
T11 sequence (looked up): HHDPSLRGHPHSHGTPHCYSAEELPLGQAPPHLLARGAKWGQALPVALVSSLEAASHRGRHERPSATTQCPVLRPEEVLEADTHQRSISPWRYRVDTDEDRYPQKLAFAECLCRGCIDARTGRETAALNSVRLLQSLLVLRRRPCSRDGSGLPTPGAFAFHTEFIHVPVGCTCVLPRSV
Procedure: as §3

T3 sequence (Q16552 20-155 limits assumed): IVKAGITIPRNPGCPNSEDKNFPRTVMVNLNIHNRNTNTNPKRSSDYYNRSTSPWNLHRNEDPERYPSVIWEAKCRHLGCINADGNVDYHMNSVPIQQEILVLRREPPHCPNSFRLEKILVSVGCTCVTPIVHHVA
T5 sequence (P48094 77-233 limits assumed): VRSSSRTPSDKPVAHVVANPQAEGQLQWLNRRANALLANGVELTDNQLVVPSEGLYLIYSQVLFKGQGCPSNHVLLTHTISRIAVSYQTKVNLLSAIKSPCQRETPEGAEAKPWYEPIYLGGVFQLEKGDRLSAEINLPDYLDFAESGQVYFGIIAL
T4 sequence (A0A2K5TTB0 entry or part of it): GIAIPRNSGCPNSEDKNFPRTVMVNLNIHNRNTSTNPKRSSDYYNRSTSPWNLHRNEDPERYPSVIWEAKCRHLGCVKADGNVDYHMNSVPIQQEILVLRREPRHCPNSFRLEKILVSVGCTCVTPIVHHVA

B1: BCD-121 tri-specific anti-IL-17A/anti-IL-17F/anti-TNFα antibody (bispecific antibody, human IgG1, kappa, L234A L235A)
heavy: not shown
light: EVQLVQSGGGLVQAGGSLRLSCAASGGTFATSPMGWLRQAPGKGTEFVAAISPSGGDRIYADSVKGRFTISRDNAGNFIYLQMNSLKPEDTAVYYCAVRRRFDGTSYYTGDYDSWGQGTLVTVSSGGGSGGGSEGAGSDIQMTQSPSSLSASVGDRVTITCKASQNVGTNVAWYQQKPGKAPKALIYSASFLYSGVPYRFSGSGSGTDFTLTISSLQPEDFATYYCQQYNIFPLTFGQGTKVEIKRTVAAPSVFIFPPSDEQLKSGTASVVCLLNNFYPREAKVQWKVDNALQSGNSQESVTEQDSKDSTYSLSSTLTLSKADYEKHKVYACEVTHQGLSSPVTKSFNRGEC
notes: also called Mab12; VHH-IgG1 (LALA)
binding result [1]: no binding (tested: 2 ng/ml) | Kd [2]: ~4000 pM | IC50, IL-17A and TNFα induced IL-6 production, HT1080 cells [3]: 0.02 µg/mL | IC50, IL-17A-dependent IL-6 production, HT1080 cells [3]: 0.0035 µg/mL | Kd [4]: ~1 pM | Kd [5]: ~1 pM | binding result [6]: no binding (tested: 2 ng/ml) | Kd [7]: < 1 pM | binding result [8]: no binding (tested: 2 ng/ml) | binding result [9]: no binding (tested: 0,5 ng/ml) | binding result [10]: no binding (tested: 0,5 ng/ml) | binding result [11]: no binding (tested: 0,5 ng/ml) | binding result [12]: no binding (tested: 0,5 ng/ml)
